Data from paper PMC3516549 (PLoS Pathogens, 2012).
Where “and” joins values, the source holds several entries; their conditions need not be identical. Equal entries are not always repeated.

Assays:
[1] = target: recombinant trimerized His-tagged soluble HA of A/South Carolina/1/18 (1918 wt) (Influenza A virus A/South …, UniProt Q9WFX3, strain); assay: BLI; […]; 1:1 binding model, […]; details: both partners purified
[2] = target: recombinant trimerized His-tagged soluble HA, A/South Carolina/1/18 (1918 wt) (Influenza A virus A/South …, UniProt Q9WFX3, strain); assay: BLI; details: both partners purified

B1: 1I20 Fab (Fab, V domains shown)
VH: EVQLVESGGGVVQPGGSLRLSCIASAFNLGIFGMHWVRQAPGKGLEWVAFIRYDGGKTFYADSVKGRFTISRDNSKNTLYLQMNSLRTEDTALYYCARDATADYYGPGSYPNWLDPWGQGTLVTVSS
VL: DIRLTQSPATLSVSPGERATLSCRASHSVSRNLAWYQQKPGRAPRLLVYDTSSRATGIPARFSGSGSGTEFTLTISSLQSEDFAVYYCQQYNNWPRTFGQGTKVDIK
notes: also called mAb 1I20; source: HEK 293F, transiently co-transfected, purified (HiTrap Protein G)
- Kd [1]: 3.22 nM and 3.46 nM
- koff [1]: 0.000375 s⁻¹ and 0.000366 s⁻¹
- kon [1]: 116000 M⁻¹ s⁻¹ and 106000 M⁻¹ s⁻¹

B2: 1I20 Fab (Fab, V domains shown)
VH: B1 VH
VL: B1 VL
notes: also called mAb 1I20
- Kd [2]: 3.3 nM
